Patent US20150307627A1 (BAC IP B V, published 2015)

Key:
Human IgG [1] = target: T1, Human IgG; test: method not given
T1 construct: also called HuIgG; human IgG-Fc domains
Experimental: (§1) Binding affinity constants of anti IgG-Fc VHH fragments were determined using surface plasmon resonance analysis (SPR) on a BiaCore 3000. For this purpose, purified VHH fragments were immobilised onto the surface of a CM5 sensor chip and subsequently incubated with different concentrations of purified IgG antibodies in HBS-EP buffer. Binding was allowed for 3 minutes at 30 μl/min followed by a dissociation step of 15 minutes at 30 μl/min Binding curves were fitted according to a 1:1 Langmuir binding model using Biacore software.

Human IgG [2] = target: T1, Human IgG; test: SPR, VHH immobilised, 1:1 Langmuir fit
Experimental: as §1

HuIgG1 [3] = target: T2, HuIgG1 (human, UniProt P01857-1 1-330 = IgG part); test: SPR, VHH immobilised, 1:1 Langmuir fit
T2 construct: Purified human IgG of subclass 1; also called Human-IgG1
T2 sequence (P01857 other isoform, or with tags, fused parts or gaps): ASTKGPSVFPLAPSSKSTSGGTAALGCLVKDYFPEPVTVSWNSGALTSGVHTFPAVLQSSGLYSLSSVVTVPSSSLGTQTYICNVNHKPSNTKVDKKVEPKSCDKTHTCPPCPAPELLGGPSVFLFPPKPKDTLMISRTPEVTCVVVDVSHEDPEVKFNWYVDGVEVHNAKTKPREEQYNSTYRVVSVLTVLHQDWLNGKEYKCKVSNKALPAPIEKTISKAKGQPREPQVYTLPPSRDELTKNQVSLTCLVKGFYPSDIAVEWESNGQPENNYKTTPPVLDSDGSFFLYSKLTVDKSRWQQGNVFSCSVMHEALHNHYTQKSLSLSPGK
Experimental: as §1

HuIgG2 [4] = target: T3, HuIgG2 (human, UniProt P01859-1 1-326 = IgG part); test: SPR, VHH immobilised, 1:1 Langmuir fit
T3 construct: Purified human IgG of subclass 2; also called Human-IgG2
T3 sequence (P01859 other isoform, or with tags, fused parts or gaps): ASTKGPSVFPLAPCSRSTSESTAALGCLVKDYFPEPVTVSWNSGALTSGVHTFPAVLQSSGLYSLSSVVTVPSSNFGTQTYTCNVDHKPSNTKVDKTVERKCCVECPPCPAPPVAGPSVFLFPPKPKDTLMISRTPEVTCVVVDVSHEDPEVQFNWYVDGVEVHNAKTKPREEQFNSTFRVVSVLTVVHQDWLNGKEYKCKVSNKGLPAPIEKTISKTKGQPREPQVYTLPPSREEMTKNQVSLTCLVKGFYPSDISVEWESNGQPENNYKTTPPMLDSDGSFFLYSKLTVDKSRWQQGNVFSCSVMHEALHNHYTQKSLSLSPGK
Experimental: as §1

HuIgG3 [5] = target: T4, HuIgG3 (human, UniProt P01860-1 1-377); test: SPR, VHH immobilised, 1:1 Langmuir fit
T4 construct: Purified human IgG of subclass 3; also called Human-IgG3
T4 sequence (P01860 other isoform, or with tags, fused parts or gaps): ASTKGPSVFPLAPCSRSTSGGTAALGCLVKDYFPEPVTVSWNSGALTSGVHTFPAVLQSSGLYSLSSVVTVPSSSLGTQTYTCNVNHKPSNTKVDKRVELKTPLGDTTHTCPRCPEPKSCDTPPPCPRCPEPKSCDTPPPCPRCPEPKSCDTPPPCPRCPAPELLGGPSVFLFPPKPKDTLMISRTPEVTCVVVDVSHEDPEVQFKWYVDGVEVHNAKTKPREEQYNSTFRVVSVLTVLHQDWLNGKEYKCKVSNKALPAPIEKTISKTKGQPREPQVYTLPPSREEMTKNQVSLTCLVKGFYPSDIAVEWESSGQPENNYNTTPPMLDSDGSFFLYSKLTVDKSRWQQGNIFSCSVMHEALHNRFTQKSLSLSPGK
Experimental: as §1

HuIgG4 [6] = target: T5, HuIgG4 (human, UniProt P01861-1 1-327 = IgG part); test: SPR, VHH immobilised, 1:1 Langmuir fit
T5 construct: Purified human IgG of subclass 4; also called Human-IgG4
T5 sequence (P01861 other isoform, or with tags, fused parts or gaps): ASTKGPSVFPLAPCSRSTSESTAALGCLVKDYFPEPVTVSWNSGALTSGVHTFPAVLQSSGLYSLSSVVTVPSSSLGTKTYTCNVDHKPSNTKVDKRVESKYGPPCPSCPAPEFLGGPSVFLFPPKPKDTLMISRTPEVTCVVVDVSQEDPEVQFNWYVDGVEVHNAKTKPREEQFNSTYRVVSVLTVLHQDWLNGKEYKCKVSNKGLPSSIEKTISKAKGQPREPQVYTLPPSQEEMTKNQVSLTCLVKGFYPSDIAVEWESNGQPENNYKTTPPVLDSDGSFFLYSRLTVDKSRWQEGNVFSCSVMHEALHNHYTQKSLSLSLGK
Experimental: as §1

Human IgG [7] = target: T1, Human IgG; test: affinity chromatography, VHH on NHS-Sepharose, 150 cm/h
Experimental: The dynamic binding capacity (DBC) of the IgG-Fc domain binding VHH fragments immobilized onto NHS sepharose was tested. 10 ml of 1.0 mg/ml human IgG in PBS pH 7.4 was loaded on a 400 μl column with a linear flow of 150 cm/h. After the washing with 10 column volumes PBS pH 7.4, the column was eluted with 0.1 M glycine buffer pH 3.0. Based on integration of the OD280 signal of the flow through and elution peak, the dynamic binding capacity of the column was calculated (Table 11).

Human IgG [8] = target: T1, Human IgG; test: SPR, VHH immobilised, IgG 50 µg/ml
Experimental: (§2) Broad binding reactivity of VHH fragment IgG-Fc-16 was determined using surface plasmon resonance analysis (SPR) on a BiaCore 3000. For this purpose, purified VHH fragment IgG-Fc-16 was immobilised onto the surface of a CM5 sensor chip and subsequently incubated with purified IgG antibodies (50 μg/ml) from different species in HBS-EP buffer. Binding was allowed for 1 minute at 5 μl/min followed by a dissociation step of 2.5 minutes at 5 μl/min. Binding signals (Resonance Units) were compared to background signals measured with HBS-EP buffer only. For comparison, the relative reactivity of Protein A and G towards different IgG species is also given.

Human IgG, Fc fragment = test: SPR, VHH immobilised, IgG 50 µg/ml
Experimental: as §2

Human IgG, Fab fragment = test: SPR, VHH immobilised, IgG 50 µg/ml
Experimental: as §2

HuIgG1 [9] = target: T2, HuIgG1; test: SPR, VHH immobilised, IgG 50 µg/ml
Experimental: as §2

HuIgG2 [10] = target: T3, HuIgG2; test: SPR, VHH immobilised, IgG 50 µg/ml
Experimental: as §2

HuIgG3 [11] = target: T4, HuIgG3; test: SPR, VHH immobilised, IgG 50 µg/ml
Experimental: as §2

HuIgG4 [12] = target: T5, HuIgG4; test: SPR, VHH immobilised, IgG 50 µg/ml
Experimental: as §2

Rat IgG = target: T6, Rat IgG; test: SPR, VHH immobilised, IgG 50 µg/ml
T6 construct: also called IgG-Fc from rat
Experimental: as §2

Rat IgG1a = test: SPR, VHH immobilised, IgG 50 µg/ml
Experimental: as §2

Rat IgG2a = Rat IgG2a (rat, UniProt P20760 1-322); test: SPR, VHH immobilised, IgG 50 µg/ml
Chain of Rat IgG2a (P20760 whole entry): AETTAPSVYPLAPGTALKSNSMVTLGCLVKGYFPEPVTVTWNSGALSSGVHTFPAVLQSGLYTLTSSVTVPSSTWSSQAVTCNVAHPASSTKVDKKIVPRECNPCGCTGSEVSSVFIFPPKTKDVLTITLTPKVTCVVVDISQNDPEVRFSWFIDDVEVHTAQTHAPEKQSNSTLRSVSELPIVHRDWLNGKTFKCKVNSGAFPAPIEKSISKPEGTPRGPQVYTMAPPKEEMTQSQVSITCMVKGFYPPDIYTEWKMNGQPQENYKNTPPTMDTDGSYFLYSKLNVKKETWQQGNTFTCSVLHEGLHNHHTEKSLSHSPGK
Experimental: as §2

Rat IgG2b = Rat IgG2b (rat, UniProt P20761 1-333); test: SPR, VHH immobilised, IgG 50 µg/ml
Chain of Rat IgG2b (P20761 whole entry): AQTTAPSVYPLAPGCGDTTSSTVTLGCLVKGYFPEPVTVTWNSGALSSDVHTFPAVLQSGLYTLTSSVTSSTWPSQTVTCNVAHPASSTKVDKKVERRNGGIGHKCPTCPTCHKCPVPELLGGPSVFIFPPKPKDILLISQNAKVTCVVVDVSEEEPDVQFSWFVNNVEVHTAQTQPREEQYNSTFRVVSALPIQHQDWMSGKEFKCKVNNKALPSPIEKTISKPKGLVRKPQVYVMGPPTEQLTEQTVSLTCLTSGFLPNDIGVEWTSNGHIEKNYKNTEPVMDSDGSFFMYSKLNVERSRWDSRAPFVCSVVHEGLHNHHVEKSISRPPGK
Experimental: as §2

Rat IgG2c = Rat IgG2c (rat, UniProt P20762 1-329); test: SPR, VHH immobilised, IgG 50 µg/ml
Chain of Rat IgG2c (P20762 whole entry): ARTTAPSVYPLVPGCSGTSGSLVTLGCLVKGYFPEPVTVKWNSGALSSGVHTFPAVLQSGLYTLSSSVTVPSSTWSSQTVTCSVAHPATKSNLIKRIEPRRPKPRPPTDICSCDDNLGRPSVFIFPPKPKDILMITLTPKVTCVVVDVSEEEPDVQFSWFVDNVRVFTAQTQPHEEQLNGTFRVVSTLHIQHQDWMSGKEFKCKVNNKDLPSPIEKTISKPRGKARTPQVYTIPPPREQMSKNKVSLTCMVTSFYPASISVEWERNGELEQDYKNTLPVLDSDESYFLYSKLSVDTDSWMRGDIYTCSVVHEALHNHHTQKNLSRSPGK
Experimental: as §2

Rabbit IgG = test: SPR, VHH immobilised, IgG 50 µg/ml
Experimental: as §2

Sheep IgG = target: T7, Sheep IgG; test: SPR, VHH immobilised, IgG 50 µg/ml
T7 construct: also called IgG-Fc from sheep
Experimental: as §2

Bovine IgG [13] = target: T8, Bovine IgG; test: SPR, VHH immobilised, IgG 50 µg/ml
T8 construct: also called IgG-Fc from bovine
Experimental: as §2

Bovine IgG, Fc fragment = test: SPR, VHH immobilised, IgG 50 µg/ml
Experimental: as §2

Bovine IgG, Fab fragment = test: SPR, VHH immobilised, IgG 50 µg/ml
Experimental: as §2

Mouse IgG [14] = target: T9, Mouse IgG; test: SPR, VHH immobilised, IgG 50 µg/ml
T9 construct: also called IgG-Fc from mouse
Experimental: as §2

Mouse IgG 1 = Mouse IgG 1 (mouse, UniProt P01868 1-324 = IgG part); test: SPR, VHH immobilised, IgG 50 µg/ml
Experimental: as §2

Mouse IgG2a = Mouse IgG2a (mouse, UniProt P01863 1-330 = IgG part); test: SPR, VHH immobilised, IgG 50 µg/ml
Chain of Mouse IgG2a (P01863 whole entry): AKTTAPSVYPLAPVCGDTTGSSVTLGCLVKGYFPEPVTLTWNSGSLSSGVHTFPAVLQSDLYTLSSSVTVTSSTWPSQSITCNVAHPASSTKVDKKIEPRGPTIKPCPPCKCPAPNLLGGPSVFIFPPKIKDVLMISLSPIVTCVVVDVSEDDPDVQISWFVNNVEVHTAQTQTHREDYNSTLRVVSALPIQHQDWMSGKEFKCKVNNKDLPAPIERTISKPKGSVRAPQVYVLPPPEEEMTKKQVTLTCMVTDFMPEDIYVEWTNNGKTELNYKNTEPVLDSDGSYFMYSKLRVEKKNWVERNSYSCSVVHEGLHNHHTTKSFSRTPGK
Experimental: as §2

Dog IgG = target: T10, Dog IgG; test: SPR, VHH immobilised, IgG 50 µg/ml
T10 construct: also called IgG-Fc from dog
Experimental: as §2

Goat IgG = target: T11, Goat IgG; test: SPR, VHH immobilised, IgG 50 µg/ml
T11 construct: also called IgG-Fc from goat
Experimental: as §2

Syrian Hamster IgG = target: T12, Syrian Hamster IgG; test: SPR, VHH immobilised, IgG 50 µg/ml
T12 construct: also called IgG-Fc from syrian hamster
Experimental: as §2

Swine IgG = test: SPR, VHH immobilised, IgG 50 µg/ml
Experimental: as §2

Cat IgG = target: T13, Cat IgG; test: SPR, VHH immobilised, IgG 50 µg/ml
T13 construct: also called IgG-Fc from cat
Experimental: as §2

Donkey IgG = test: SPR, VHH immobilised, IgG 50 µg/ml
Experimental: as §2

Guinea pig IgG = target: T14, Guinea pig IgG; test: SPR, VHH immobilised, IgG 50 µg/ml
T14 construct: also called Guinea IgG; IgG-Fc from guinea pig
Experimental: as §2

Foetal Calf IgG = test: SPR, VHH immobilised, IgG 50 µg/ml
Experimental: as §2

Newborn Calf IgG = test: SPR, VHH immobilised, IgG 50 µg/ml
Experimental: as §2

Horse IgG = test: SPR, VHH immobilised, IgG 50 µg/ml
Experimental: as §2

Bovine IgG [15] = target: T8, Bovine IgG; test: SPR, VHH immobilised, 1:1 Langmuir fit
Experimental: as §1

Mouse IgG [16] = target: T9, Mouse IgG; test: SPR, VHH immobilised, 1:1 Langmuir fit
Experimental: as §1

B1: IgG-Fc-10 (VHH)
VHH: QVQLQESGGGLVQAGDSLRISCRASGLTVNDLYMGWFRQAPGKEREFVGRVTPGDNTDYTYYVDSVKGRFTISRDSAKNTVYLQMNSLKLEDTAVYLCAGRRFGSSEWDYWGQGTQVTVSS
Ka (Human IgG [1]): ≥ 4e+09 M⁻¹
Ka (Human IgG [2]): 3.07e+08 M⁻¹
Kd (Human IgG [2]): 3.25 nM
koff (Human IgG [2]): 0.00129 s⁻¹
kon (Human IgG [2]): 396000 M⁻¹ s⁻¹
Ka (HuIgG1 [3]): 3.81e+08 M⁻¹
Kd (HuIgG1 [3]): 2.62 nM
koff (HuIgG1 [3]): 0.000654 s⁻¹
kon (HuIgG1 [3]): 249000 M⁻¹ s⁻¹
Ka (HuIgG2 [4]): 1.37e+08 M⁻¹
Kd (HuIgG2 [4]): 7.29 nM
koff (HuIgG2 [4]): 0.000889 s⁻¹
kon (HuIgG2 [4]): 122000 M⁻¹ s⁻¹
Ka (HuIgG3 [5]): 1.11e+08 M⁻¹
Kd (HuIgG3 [5]): 8.99 nM
koff (HuIgG3 [5]): 0.0014 s⁻¹
kon (HuIgG3 [5]): 156000 M⁻¹ s⁻¹
Ka (HuIgG4 [6]): 8.16e+07 M⁻¹
Kd (HuIgG4 [6]): 12.3 nM
koff (HuIgG4 [6]): 0.00123 s⁻¹
kon (HuIgG4 [6]): 100000 M⁻¹ s⁻¹
Dynamic binding capacity (Human IgG [7]): 16.7 mg human IgG/ml matrix

B2: IgG-Fc-16 (VHH)
VHH: QVQLQESGGGLVQAGGSLRLSCAASGRAVGNYIIGWFRQAPGKEREFVATTTRDGGSTFYADSVKGRFTISRDNAKNTVNLQMNSLEPEDTAVYYCAAKSWSVPLRPTSADFDSWGQGTQVTVSS
notes: also called VHH fragment IgG-Fc-16
Binding signal (RU) (Human IgG [8]): 1110 RU
Binding signal (RU) (Human IgG, Fc fragment): 807 RU
Binding signal (RU) (Human IgG, Fab fragment): -2.8 RU
Binding signal (RU) (HuIgG1 [9]): 1570 RU
Binding signal (RU) (HuIgG2 [10]): 795 RU
Binding signal (RU) (HuIgG3 [11]): 499 RU
Binding signal (RU) (HuIgG4 [12]): 710 RU
Binding signal (RU) (Rat IgG): 108 RU
Binding signal (RU) (Rat IgG1a): 431 RU
Binding signal (RU) (Rat IgG2a): 444 RU
Binding signal (RU) (Rat IgG2b): 512 RU
Binding signal (RU) (Rat IgG2c): 2130 RU
Binding signal (RU) (Rabbit IgG): 800 RU
Binding signal (RU) (Sheep IgG): 846 RU
Binding signal (RU) (Bovine IgG [13]): 309 RU
Binding signal (RU) (Bovine IgG, Fc fragment): 172 RU
Binding signal (RU) (Bovine IgG, Fab fragment): -1.7 RU
Binding signal (RU) (Mouse IgG [14]): 468 RU
Binding signal (RU) (Mouse IgG 1): 1610 RU
Binding signal (RU) (Mouse IgG2a): 427 RU
Binding signal (RU) (Dog IgG): 490 RU
Binding signal (RU) (Goat IgG): 257 RU
Binding signal (RU) (Syrian Hamster IgG): 670 RU
Binding signal (RU) (Swine IgG): 811 RU
Binding signal (RU) (Cat IgG): 410 RU
Binding signal (RU) (Donkey IgG): 638 RU
Binding signal (RU) (Guinea pig IgG): 577 RU
Binding signal (RU) (Foetal Calf IgG): 260 RU
Binding signal (RU) (Newborn Calf IgG): 239 RU
Binding signal (RU) (Horse IgG): 430 RU
Ka (Human IgG [2]): 7.65e+07 M⁻¹
Kd (Human IgG [2]): 13.1 nM
koff (Human IgG [2]): 0.000462 s⁻¹
kon (Human IgG [2]): 35300 M⁻¹ s⁻¹
Ka (HuIgG1 [3]): 1.47e+08 M⁻¹
Kd (HuIgG1 [3]): 6.81 nM
koff (HuIgG1 [3]): 0.000211 s⁻¹
kon (HuIgG1 [3]): 31000 M⁻¹ s⁻¹
Ka (HuIgG2 [4]): 6.17e+07 M⁻¹
Kd (HuIgG2 [4]): 16.2 nM
koff (HuIgG2 [4]): 0.000355 s⁻¹
kon (HuIgG2 [4]): 21900 M⁻¹ s⁻¹
Ka (HuIgG3 [5]): 4.69e+07 M⁻¹
Kd (HuIgG3 [5]): 21.3 nM
koff (HuIgG3 [5]): 0.000849 s⁻¹
kon (HuIgG3 [5]): 39800 M⁻¹ s⁻¹
Ka (HuIgG4 [6]): 5.89e+08 M⁻¹
Kd (HuIgG4 [6]): 1.7 nM
koff (HuIgG4 [6]): 0.000107 s⁻¹
kon (HuIgG4 [6]): 62900 M⁻¹ s⁻¹
Ka (Bovine IgG [15]): 3.59e+08 M⁻¹
Kd (Bovine IgG [15]): 2.79 nM
koff (Bovine IgG [15]): 0.000386 s⁻¹
kon (Bovine IgG [15]): 138000 M⁻¹ s⁻¹
Ka (Mouse IgG [16]): 1.19e+08 M⁻¹
Kd (Mouse IgG [16]): 8.41 nM
koff (Mouse IgG [16]): 0.000198 s⁻¹
kon (Mouse IgG [16]): 23500 M⁻¹ s⁻¹
Dynamic binding capacity (Human IgG [7]): 11.5 mg human IgG/ml matrix

B3: IgG-Fc-01 (VHH)
VHH: QVQLQESGGGLVQPGGSLRLSCAASGGTSIRIGSINALAWYRQALGNQRELVAAVTEGGSTNYADFVKGRFTISRDNAQNMMYLQMNSLKPEDTAVYYCNADKVLYSRGGYYSVANDLWGQGTQVTVSS
notes: also called IgG-Fc-1
Ka (Human IgG [2]): 4.67e+08 M⁻¹
Kd (Human IgG [2]): 2.14 nM
koff (Human IgG [2]): 0.000176 s⁻¹
kon (Human IgG [2]): 82400 M⁻¹ s⁻¹
Ka (HuIgG1 [3]): 1.74e+09 M⁻¹
Kd (HuIgG1 [3]): 0.575 nM
koff (HuIgG1 [3]): 0.000208 s⁻¹
kon (HuIgG1 [3]): 361000 M⁻¹ s⁻¹
Ka (HuIgG2 [4]): 5.76e+08 M⁻¹
Kd (HuIgG2 [4]): 1.73 nM
koff (HuIgG2 [4]): 0.000212 s⁻¹
kon (HuIgG2 [4]): 122000 M⁻¹ s⁻¹
Ka (HuIgG3 [5]): 2.09e+07 M⁻¹
Kd (HuIgG3 [5]): 47.8 nM
koff (HuIgG3 [5]): 0.000272 s⁻¹
kon (HuIgG3 [5]): 5690 M⁻¹ s⁻¹
Ka (HuIgG4 [6]): 3.32e+09 M⁻¹
Kd (HuIgG4 [6]): 0.302 nM
koff (HuIgG4 [6]): 5.91e-05 s⁻¹
kon (HuIgG4 [6]): 196000 M⁻¹ s⁻¹
Dynamic binding capacity (Human IgG [7]): 18.2 mg human IgG/ml matrix
